Experiments:
human C1q = human C1q (Homo sapiens, UniProt P02745;P02746;P02747); assay: cell-based or functional assay
[1] = molecular target: T1, monomeric single-chain recombinant gC1q (Homo sapiens); assay: BLI; Octet Red96, 30°C, 1,000 rpm; C1qNb75 immobilized on amine reactive (AR2G) biosensors; kinetics buffer (PBS, 1 mg/mL BSA, 0.05% Tween 20); gC1q 0.3 to 10.9 nM, C1q 0.7 to 5.4 nM; gC1q data globally fitted with a 1:1 binding model; conditions: both partners purified
T1 construct: globular head module of human C1q A-chain; numbers count on: the mature protein; globular head module of human C1q C-chain; globular head module of human C1q B-chain; also called single-chain form of gC1q; hC1qGH
T1 chain: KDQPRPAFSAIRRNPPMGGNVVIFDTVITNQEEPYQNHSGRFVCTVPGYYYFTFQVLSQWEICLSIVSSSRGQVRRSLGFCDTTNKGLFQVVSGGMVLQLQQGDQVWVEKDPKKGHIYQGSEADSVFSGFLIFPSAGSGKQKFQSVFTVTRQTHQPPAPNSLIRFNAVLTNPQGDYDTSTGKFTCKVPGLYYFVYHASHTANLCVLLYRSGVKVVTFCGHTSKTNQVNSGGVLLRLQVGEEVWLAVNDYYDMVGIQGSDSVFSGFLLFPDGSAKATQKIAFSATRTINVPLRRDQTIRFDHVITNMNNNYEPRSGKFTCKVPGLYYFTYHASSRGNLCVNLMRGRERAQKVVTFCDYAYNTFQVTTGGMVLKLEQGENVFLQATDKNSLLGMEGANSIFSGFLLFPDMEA

human C1q, sequence (P02745 23-245, chain 1 of 2): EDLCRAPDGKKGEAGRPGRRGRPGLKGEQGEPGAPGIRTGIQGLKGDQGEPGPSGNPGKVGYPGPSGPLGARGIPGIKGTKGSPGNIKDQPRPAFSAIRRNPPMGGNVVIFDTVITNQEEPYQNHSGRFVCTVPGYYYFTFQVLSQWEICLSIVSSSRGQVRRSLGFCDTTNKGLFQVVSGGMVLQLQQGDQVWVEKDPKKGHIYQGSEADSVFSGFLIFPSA
human C1q, sequence (P02747 29-245, chain 3 of 2): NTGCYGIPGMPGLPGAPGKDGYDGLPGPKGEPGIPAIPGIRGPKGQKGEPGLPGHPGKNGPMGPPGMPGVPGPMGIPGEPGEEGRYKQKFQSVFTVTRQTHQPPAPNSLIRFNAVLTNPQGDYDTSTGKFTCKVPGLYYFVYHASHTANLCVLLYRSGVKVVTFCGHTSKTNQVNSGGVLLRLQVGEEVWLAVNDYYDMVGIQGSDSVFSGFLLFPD

Kd [1]: 0.3 nM
t1/2 [1]: 1.14 h
B1: C1qNb75 (VHH)
VHH: QVQLVETGGGLVQAGGSLRLSCAASGRTFNNDVMAWFRQAPGTEREFVALITAGGGTHYADSVKGRFVISRDNDKNMAYLQMNSLKSEDTAIYYCGADENPPGWPSRWSSAYDYWGQGTQVTVSS
notes: nanobody chain of the crystal structure deposited here as PDB 6Z6V; also called C1q specific nanobody; source: E. coli LOBSTR cells (pET22b+), purified (Ni-NTA, MonoS, Superdex75)
IC50 of hemolysis of IgM-sensitized sheep RBCs in NHS with increasing concentrations of C1qNb75 (blocks C1q binding to IgM) (human C1q): 5.8 nM

Source: publication PMC7396675, “Functional and Structural Characterization of a Potent C1q Inhibitor Targeting the Classical Pathway of the Complement System” (Frontiers in Immunology, 2020)
